Data: US20230002480A1

Tests used:
Assay in all cases: cell-based or functional assay
[1] = target: HIV-1 Env of pseudovirus 1006_11_C3_1601 (clade B (T/F)) (HIV-1)
[2] = target: HIV-1 Env of pseudovirus 1012_11_TC21_3257 (clade B (T/F)) (HIV-1)
[3] = target: HIV-1 Env of pseudovirus 1394C9G1(Rev-) (clade C (T/F)) (HIV-1)
[4] = target: HIV-1 Env of pseudovirus 246F C1G (clade C (T/F)) (HIV-1)
[5] = target: HIV-1 Env of pseudovirus 7030102001E5(Rev-) (clade C (T/F)) (HIV-1)
[6] = target: HIV-1 Env of pseudovirus AC10.0.29 (clade B) (HIV-1)
[7] = target: HIV-1 Env of pseudovirus CAP210.2.00.E8 (clade C) (HIV-1)
[8] = target: HIV-1 Env of pseudovirus CNE52 (clade BC) (HIV-1)
[9] = target: HIV-1 Env of pseudovirus CNE58 (clade BC) (HIV-1)
[10] = target: HIV-1 Env of pseudovirus Ce0393_C3 (clade C (T/F)) (HIV-1)
[11] = target: HIV-1 Env of pseudovirus Ce0682_E4 (clade C (T/F)) (HIV-1)
[12] = target: HIV-1 Env of pseudovirus Ce1086_B2 (clade C (T/F)) (HIV-1)
[13] = target: HIV-1 Env of pseudovirus HIV-0013095-2.11 (clade C) (HIV-1)
[14] = target: HIV-1 Env of pseudovirus HIV-001428-2.42 (clade C) (HIV-1)
[15] = target: HIV-1 Env of pseudovirus HIV-16055-2.3 (clade C) (HIV-1)
[16] = target: HIV-1 Env of pseudovirus PVO.4 (clade B) (HIV-1)
[17] = target: HIV-1 Env of pseudovirus Q842.d12 (clade A) (HIV-1)
[18] = target: HIV-1 Env of pseudovirus QH0692.42 (clade B) (HIV-1)
[19] = target: HIV-1 Env of pseudovirus SC05_8C11_2344 (clade B (T/F)) (HIV-1)
[20] = target: HIV-1 Env of pseudovirus ZM135M.PL10a (clade C) (HIV-1)
[21] = target: HIV-1 Env pseudovirus 211-9 (HIV-1)
[22] = target: HIV-1 Env pseudovirus 3103.v3.c10 (HIV-1)
[23] = target: HIV-1 Env pseudovirus 3365.v2.c2 (HIV-1)
[24] = target: HIV-1 Env pseudovirus 3415.v1.c1 (HIV-1)
[25] = target: HIV-1 Env pseudovirus 6952.v1.c20 (HIV-1)
[26] = target: HIV-1 Env pseudovirus R1166.c01 (HIV-1)
[27] = target: HIV-1 Env pseudovirus T278-50 (HIV-1)
[28] = target: HIV-1 Env pseudovirus X1254_c3 (HIV-1)
[29] = target: HIV-1 Env pseudovirus X2131_C1_B5 (HIV-1)
[30] = target: HIV-1 Env of pseudovirus 211-9 (clade CRF02_AG) (HIV-1)
[31] = target: HIV-1 Env of pseudovirus C4118.c09 (clade CRF01_AE) (HIV-1)

N49P11 (antibody)
IC50 [1]: 0.125 µg/mL
IC80 [1]: 0.487 µg/mL
MPI [1]: 100
IC50 [2]: 10.6 µg/mL
IC80 [2]: 29.3 µg/mL
MPI [2]: 100
IC50 [3]: 6.13 µg/mL
IC80 [3]: 22.3 µg/mL
MPI [3]: 100
IC50 [4]: 8.48 µg/mL
IC80 [4]: 20.9 µg/mL
MPI [4]: 100
IC50 [5]: 0.635 µg/mL
IC80 [5]: 2.29 µg/mL
MPI [5]: 100
IC50 [6]: 5.52 µg/mL
IC80 [6]: 20 µg/mL
MPI [6]: 100
IC50 [7]: 5.12 µg/mL
IC80 [7]: 19.4 µg/mL
MPI [7]: 100
IC50 [8]: 0.06 µg/mL
IC80 [8]: 0.307 µg/mL
MPI [8]: 100
IC50 [9]: 0.038 µg/mL
IC80 [9]: 0.135 µg/mL
MPI [9]: 100
IC50 [10]: 1.51 µg/mL
IC80 [10]: 9.71 µg/mL
MPI [10]: 100
IC50 [11]: 0.091 µg/mL
IC80 [11]: 0.387 µg/mL
MPI [11]: 100
IC50 [12]: 2.19 µg/mL
IC80 [12]: 11.7 µg/mL
MPI [12]: 100
IC50 [13]: 5.85 µg/mL
IC80 [13]: 17.8 µg/mL
MPI [13]: 100
IC50 [14]: 0.221 µg/mL
IC80 [14]: 1.64 µg/mL
MPI [14]: 100
IC50 [15]: 0.091 µg/mL
IC80 [15]: 0.503 µg/mL
MPI [15]: 100
IC50 [16]: 0.248 µg/mL
IC80 [16]: 1.17 µg/mL
MPI [16]: 100
IC50 [17]: 0.027 µg/mL
IC80 [17]: 0.103 µg/mL
MPI [17]: 100
IC50 [18]: 0.55 µg/mL
IC80 [18]: 2.65 µg/mL
MPI [18]: 100
IC50 [19]: 5.42 µg/mL
IC80 [19]: 20.5 µg/mL
MPI [19]: 100
IC50 [20]: 3.97 µg/mL
IC80 [20]: 16.6 µg/mL
MPI [20]: 100

N49P18.1 (antibody)
IC50 [1]: 2.8 µg/mL
IC80 [1]: 9.66 µg/mL
MPI [1]: 99
IC50 [2]: 16.1 µg/mL
IC80 [2]: > 50 µg/mL
MPI [2]: 79
IC50 [3]: > 50 µg/mL
IC80 [3]: > 50 µg/mL
MPI [3]: 17
IC50 [4]: 3.4 µg/mL
IC80 [4]: 20.2 µg/mL
MPI [4]: 97
IC50 [5]: 6.35 µg/mL
IC80 [5]: 17.7 µg/mL
MPI [5]: 98
IC50 [6]: 20 µg/mL
IC80 [6]: > 50 µg/mL
MPI [6]: 71
IC50 [7]: > 50 µg/mL
IC80 [7]: > 50 µg/mL
MPI [7]: 11
IC50 [8]: 2.46 µg/mL
IC80 [8]: 6.65 µg/mL
MPI [8]: 100
IC50 [9]: 1.92 µg/mL
IC80 [9]: 5.26 µg/mL
MPI [9]: 100
IC50 [10]: 10.3 µg/mL
IC80 [10]: 24.8 µg/mL
MPI [10]: 92
IC50 [11]: 3.95 µg/mL
IC80 [11]: 21.1 µg/mL
MPI [11]: 96
IC50 [12]: 8.98 µg/mL
IC80 [12]: 48 µg/mL
MPI [12]: 92
IC50 [13]: > 50 µg/mL
IC80 [13]: > 50 µg/mL
MPI [13]: 48
IC50 [14]: 1.13 µg/mL
IC80 [14]: 8.31 µg/mL
MPI [14]: 100
IC50 [15]: 8.04 µg/mL
IC80 [15]: 22.6 µg/mL
MPI [15]: 97
IC50 [16]: 9.65 µg/mL
IC80 [16]: 40.2 µg/mL
MPI [16]: 84
IC50 [17]: 3.04 µg/mL
IC80 [17]: 8.13 µg/mL
MPI [17]: 100
IC50 [18]: > 50 µg/mL
IC80 [18]: > 50 µg/mL
MPI [18]: 43
IC50 [19]: 17.3 µg/mL
IC80 [19]: > 50 µg/mL
MPI [19]: 79
IC50 [20]: > 50 µg/mL
IC80 [20]: > 50 µg/mL
MPI [20]: 46

N49P19 (antibody)
IC50 [21]: 3.23 µg/mL
IC80 [21]: 19 µg/mL
MPI [21]: 93
IC50 [22]: > 50 µg/mL
IC80 [22]: > 50 µg/mL
MPI [22]: 0
IC50 [23]: 0.579 µg/mL
IC80 [23]: 2.09 µg/mL
MPI [23]: 99
IC50 [24]: 0.462 µg/mL
IC80 [24]: 2.04 µg/mL
MPI [24]: 100
IC50 [25]: > 50 µg/mL
IC80 [25]: > 50 µg/mL
MPI [25]: 0
IC50 [26]: 0.629 µg/mL
IC80 [26]: 2.69 µg/mL
MPI [26]: 100
IC50 [27]: > 50 µg/mL
IC80 [27]: > 50 µg/mL
MPI [27]: 35
IC50 [28]: > 50 µg/mL
IC80 [28]: > 50 µg/mL
MPI [28]: 48
IC50 [29]: 2.52 µg/mL
IC80 [29]: 14.4 µg/mL
MPI [29]: 91

PG9 (antibody)
IC50, titer in TZM.bl cells [30]: 0.049 µg/mL
IC80, titer in TZM.bl cells [30]: 0.243 µg/mL
IC50, titer in TZM.bl cells [31]: 0.068 µg/mL
IC80, titer in TZM.bl cells [31]: 0.2 µg/mL

PG16 (antibody)
IC50, titer in TZM.bl cells [30]: 0.029 µg/mL
IC80, titer in TZM.bl cells [30]: 0.144 µg/mL
IC50, titer in TZM.bl cells [31]: 0.022 µg/mL
IC80, titer in TZM.bl cells [31]: 0.143 µg/mL
